# According to patent JP2000169393A:
# Target: 抗Fasモノクローナル抗体HFE7A(マウス−マウスハイブリドーマHFE7A、FERM BP−5828が産生)
# Assay: 200 µg peptide pre-incubated with 0.25 µg HFE7A, then flow cytometry on WR19L12a cells; D355-364 control set to 100 % fluorescence
row,Binder,HFE7AとWR19L12a細胞との結合の阻害(%)
1,EINCTRTQNT [合成ペプチドP100],50 %
2,KCRCKPNFFC [合成ペプチドP110],60 %
